According to paper PMC6482854:

Tests used:
[1] = molecular target: P22 coat protein (bacteriophage P22) (UniProt P26747); assay: SEC-MALS
[2] = molecular target: P22-StAv particles (in vitro assembled) (bacteriophage P22 | not stated) (UniProt P26747); assay: SEC-MALS

Chain of UniProt P26747 (P26747 whole entry): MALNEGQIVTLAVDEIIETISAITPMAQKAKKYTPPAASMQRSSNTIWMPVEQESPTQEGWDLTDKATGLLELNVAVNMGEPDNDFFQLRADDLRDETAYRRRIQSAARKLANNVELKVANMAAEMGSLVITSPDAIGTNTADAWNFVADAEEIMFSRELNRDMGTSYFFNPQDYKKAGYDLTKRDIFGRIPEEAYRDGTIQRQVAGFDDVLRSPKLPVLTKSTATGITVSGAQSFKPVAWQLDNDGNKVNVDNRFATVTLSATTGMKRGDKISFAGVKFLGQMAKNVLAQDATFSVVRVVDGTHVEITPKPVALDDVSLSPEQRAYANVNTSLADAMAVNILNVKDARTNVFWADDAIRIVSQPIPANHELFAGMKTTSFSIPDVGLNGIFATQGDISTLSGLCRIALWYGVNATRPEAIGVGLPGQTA

Substance | copies of StAv-SP per capsid (copies per capsid) [1] | stoichiometry N (copies per capsid) [2]
6xhis-StAv(15–159)-GAAG-ENLYFQS-GAAG-SP(142–303) (from UniProt P26748 142-303) | 328 | 
biotinylated Cys-6xhis-SP(142–303)-GGGGG-ENLYFQS-GGGGG-GFP (from UniProt P26748 142-303) |  | 36
